Molecular target: B/Phuket/3073/2013 NA ectodomain (residues W80-L466) (influenza B virus B/Phuket/3073/2013)
Assay: cryo-EM structure

Work on “B/Phuket/3073/2013 NA ectodomain (residues W80-L466) (domain or fragment)” yielded a stoichiometry N of 4.

From publication PMC7572813
